This is an account of results in patent publication US20010023068.

The test system of this data set is G-protein beta/gamma subunits (Gβγ).

For “p110g/SVP4b heterodimer (GFP-fusion tagged p110gamma co-expressed with SVP4b in SF21 cells)”, the “fold stimulation of 32P incorporation into PIP3 in the presence of Gβγ over that in its absence” value was “a 9.4 fold stimulation of ^32P incorporation into PIP3 over that seen in the absence of Gβγ was seen with the p110g/SVP4b heterodimer” and the pmol incorporation of 32P into PIP3, Plus Gβγ was 10.3 pmol.
As for “p110g/p101 heterodimer (GFP-fusion tagged p110gamma co-expressed with full length p101 in SF21 cells)”, the “fold stimulation of 32P incorporation into PIP3 in the presence of Gβγ over basal activity” value was “the p101/p101 heterodimer produced a 4.6 fold stimulation over basal activity in the presence of Gβγ” and the pmol incorporation of 32P into PIP3, Plus Gβγ amounted to 13.5 pmol.
